Reference: the supplement of paper PMC9112550, “Optimization of the antimicrobial peptide Bac7 by deep mutational scanning” (BMC Biology, 2022)

tested on: Escherichia coli TOP10; experiment: shrunken log2 fold change of peptide-encoding DNA abundance (4.5 h post-induction vs induction); higher = less antimicrobial activity (less host growth inhibition); conditions: time post-induction: 4.5 h; library: site-saturation at positions 5, 18, 19, 20
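Also: peptides expressed intracellularly from a pBAD plasmid library in pooled LB shake-flask culture, induced with 0.3% L-arabinose, DNA abundance read by NGS, three biological replicates, DESeq2 with apeglm shrinkage.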

Point of comparison: RRIRTRPPRLPRPRPRPLKRPRP, “shrunken log2 fold change” value -0.236. Against it:
- RRIRGRPPRLPRPRPRPARDPRP — higher, 0.585
- RRIRPRPPRLPRPRPRPVPRPRP — higher, 0.531
- RRIRCRPPRLPRPRPRPHNKPRP — lower, -0.75
- RRIRIRPPRLPRPRPRPGNGPRP — higher, 0.0389
- RRIRYRPPRLPRPRPRPLMGPRP — within 0.2 log units, -0.0741
- RRIRDRPPRLPRPRPRPGKTPRP — higher, -0.00088
- RRIRGRPPRLPRPRPRPDSNPRP — within 0.2 log units, -0.0604
- RRIRARPPRLPRPRPRPSHVPRP — within 0.2 log units, -0.306
- RRIRYRPPRLPRPRPRPWKDPRP — higher, -0.0122
- RRIRERPPRLPRPRPRPFVRPRP — within 0.2 log units, -0.146
- RRIRFRPPRLPRPRPRPKFYPRP — within 0.2 log units, -0.308
- RRIRLRPPRLPRPRPRPSPMPRP — within 0.2 log units, -0.107
- RRIRYRPPRLPRPRPRPIDDPRP — lower, -1.19
- RRIRVRPPRLPRPRPRPMFIPRP — within 0.2 log units, -0.384
- RRIRWRPPRLPRPRPRPMDSPRP — within 0.2 log units, -0.198
- RRIRFRPPRLPRPRPRPANCPRP — within 0.2 log units, -0.211
- RRIRARPPRLPRPRPRPDICPRP — higher, 0.307
- RRIRNRPPRLPRPRPRPRMNPRP — higher, 0.00678
- RRIRVRPPRLPRPRPRPDWDPRP — higher, 0.0311
- RRIRIRPPRLPRPRPRPKYVPRP — within 0.2 log units, -0.134
- RRIRMRPPRLPRPRPRPWIQPRP — within 0.2 log units, -0.228
- RRIRPRPPRLPRPRPRPHWSPRP — higher, 0.26
- RRIRCRPPRLPRPRPRPHWGPRP — higher, 0.143
- RRIRHRPPRLPRPRPRPCAKPRP — within 0.2 log units, -0.251
- RRIRSRPPRLPRPRPRPYLNPRP — lower, -0.564
- RRIRIRPPRLPRPRPRPCTIPRP — within 0.2 log units, -0.25
- RRIRWRPPRLPRPRPRPLQPPRP — higher, 0.54
- RRIRLRPPRLPRPRPRPFTCPRP — within 0.2 log units, -0.115
- RRIRRRPPRLPRPRPRPNEWPRP — higher, 0.0626
- RRIRKRPPRLPRPRPRPMGQPRP — higher, 0.0265
- RRIRGRPPRLPRPRPRPPYYPRP — higher, -0.0196
- RRIRARPPRLPRPRPRPKAMPRP — higher, 0.00028
- RRIRARPPRLPRPRPRPADIPRP — within 0.2 log units, -0.245
- RRIRPRPPRLPRPRPRPEQEPRP — higher, 0.278
- RRIRPRPPRLPRPRPRPYYNPRP — lower, -1.11
- RRIRWRPPRLPRPRPRPMKNPRP — higher, 0.226
- RRIRDRPPRLPRPRPRPEEIPRP — higher, -0.0062
- RRIRRRPPRLPRPRPRPCNYPRP — higher, 0.159
- RRIRERPPRLPRPRPRPWCYPRP — lower, -0.947
- RRIRHRPPRLPRPRPRPWLTPRP — higher, -0.00695
- RRIRVRPPRLPRPRPRPHQVPRP — within 0.2 log units, -0.111
- RRIRSRPPRLPRPRPRPVFNPRP — lower, -0.709
- RRIRKRPPRLPRPRPRPLEIPRP — higher, 0.281
- RRIRLRPPRLPRPRPRPDWDPRP — within 0.2 log units, -0.183
- RRIRWRPPRLPRPRPRPDAHPRP — higher, 0.0254
- RRIRTRPPRLPRPRPRPHRKPRP — within 0.2 log units, -0.0762
- RRIRQRPPRLPRPRPRPEQAPRP — higher, 0.378
- RRIRVRPPRLPRPRPRPLPTPRP — higher, 0.184
- RRIRNRPPRLPRPRPRPHKPPRP — within 0.2 log units, -0.368
- RRIRPRPPRLPRPRPRPYKCPRP — higher, -0.0297
- RRIRGRPPRLPRPRPRPNWQPRP — higher, 0.0611
- RRIRKRPPRLPRPRPRPTDDPRP — higher, 1.01
- RRIRPRPPRLPRPRPRPPSSPRP — within 0.2 log units, -0.207
- RRIRVRPPRLPRPRPRPSFQPRP — within 0.2 log units, -0.22
- RRIRPRPPRLPRPRPRPDTHPRP — within 0.2 log units, -0.119
- RRIRARPPRLPRPRPRPGTDPRP — higher, 0.565
- RRIRSRPPRLPRPRPRPQNQPRP — lower, -0.455
- RRIRTRPPRLPRPRPRPHNQPRP — within 0.2 log units, -0.369
- RRIRLRPPRLPRPRPRPEWWPRP — higher, 0.124
